Results as given in article doi:10.1101/2022.10.05.511050 (bioRxiv, 2022).
“And” between values parts separate entries of the source, which are not always exact repeats. Equal values may be shown once.

Target: HA-tagged NLRC4 (UniProt Q3UP24 1-1024)
Test: co-IP

HA-tagged NLRC4, sequence (Q3UP24 whole entry): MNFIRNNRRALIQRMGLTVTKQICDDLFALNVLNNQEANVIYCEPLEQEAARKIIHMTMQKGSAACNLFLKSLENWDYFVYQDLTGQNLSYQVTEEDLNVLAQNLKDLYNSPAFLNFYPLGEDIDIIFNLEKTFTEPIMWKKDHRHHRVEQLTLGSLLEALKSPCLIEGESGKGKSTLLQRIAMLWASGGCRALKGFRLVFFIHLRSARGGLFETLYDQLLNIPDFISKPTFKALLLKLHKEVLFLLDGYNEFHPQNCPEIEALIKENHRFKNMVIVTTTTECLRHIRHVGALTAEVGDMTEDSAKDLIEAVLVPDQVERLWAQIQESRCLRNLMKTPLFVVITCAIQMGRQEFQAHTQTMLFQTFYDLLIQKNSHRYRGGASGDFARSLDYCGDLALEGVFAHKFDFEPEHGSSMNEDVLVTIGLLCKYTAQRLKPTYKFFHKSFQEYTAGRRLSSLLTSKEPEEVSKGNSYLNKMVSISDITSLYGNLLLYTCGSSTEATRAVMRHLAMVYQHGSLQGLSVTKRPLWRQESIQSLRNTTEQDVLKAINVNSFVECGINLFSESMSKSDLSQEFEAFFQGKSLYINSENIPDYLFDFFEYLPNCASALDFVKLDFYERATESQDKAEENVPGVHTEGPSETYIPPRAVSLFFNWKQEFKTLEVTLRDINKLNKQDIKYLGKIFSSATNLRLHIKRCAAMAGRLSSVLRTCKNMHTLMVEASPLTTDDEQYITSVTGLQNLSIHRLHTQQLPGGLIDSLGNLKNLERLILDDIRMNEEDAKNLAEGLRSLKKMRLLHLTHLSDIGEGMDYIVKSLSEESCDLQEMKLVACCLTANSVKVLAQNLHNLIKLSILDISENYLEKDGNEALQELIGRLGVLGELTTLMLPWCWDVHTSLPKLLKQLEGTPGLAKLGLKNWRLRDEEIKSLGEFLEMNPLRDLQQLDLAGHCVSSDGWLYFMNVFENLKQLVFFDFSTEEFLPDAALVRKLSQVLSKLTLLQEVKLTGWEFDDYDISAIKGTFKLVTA

B1: HA-tagged PELO (natural protein)
chain: MKLVRKDIEKDNAGQVTLVPEEPEDMWHTFNLVQVGDSLRASTIRKVQTESSTGSVGSNRVRTTLTLCVEAIDFDSQACQLRVKGTNIQENEYVKMGAYHTIELEPNRQFTLAKKQWDSVVLERIEQACDPAWSADVAAVVMQEGLAHVCLVTPSMTLTRAKVEVNIPRKRKGNCSQHDRALERFYEQVVQAIQRHINFEVVKCVLVASPGFVREQFCDYMFQQAVKTDNKVLLENRSKFLQVHASSGHKYSLKEALCDPTVASRLSDTKAAGEVKALDDFYKMLQHEPDRAFYGLKQVERANEALAIDTLLISDELFRHQDVATRSRYVRLVDSVKENAGTVRIFSSLHVSGEQLGQLTGVAAILRFPVPELSDQEDDSSSEED
stoichiometry N: < 0.05 PELO per NLRC4 and ~0.05 PELO per NLRC4
